Test results taken from US20050241007.

System: Frog Prince transposase (consensus, FP) (Rana pipiens)
Assay: cell_activity
Conditions: G418-resistant colony increase in HeLa cells

Chain of Frog Prince transposase (consensus, FP) (Rana pipiens) (chain, as listed by the source): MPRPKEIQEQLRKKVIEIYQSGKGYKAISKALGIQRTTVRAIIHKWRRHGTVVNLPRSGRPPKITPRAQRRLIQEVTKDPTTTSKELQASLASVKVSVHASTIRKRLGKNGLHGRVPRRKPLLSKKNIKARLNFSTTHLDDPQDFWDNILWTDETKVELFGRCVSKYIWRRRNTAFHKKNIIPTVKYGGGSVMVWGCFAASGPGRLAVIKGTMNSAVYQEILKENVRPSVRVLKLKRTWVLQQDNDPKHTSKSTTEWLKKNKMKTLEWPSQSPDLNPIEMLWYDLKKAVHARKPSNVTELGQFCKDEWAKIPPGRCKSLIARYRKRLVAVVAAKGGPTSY

Row | Substance | activity (cross-mobilization) [fold] | activity (transposition) [fold]
1 | Txr transposon (pTxr-neo) | 5 | 
2 | CAGTGGTGTGAAAAAGTGTTTGCCCCCTTCCTCATTTCCTGTTCCTTTGCATGTTTGTCACACTTAAGTGTTTCGGAACATCAAACCAATTTAAACAATAGTCAAGGACAACACAAGTAAACACAAAATGCAATTTGTAAATGAAGGTGTTTATTATTAAAGGTGAAAAAAAATCCAAACCATCATGGCCCTGTGTGAAAAAGTGATTGCCCCCCTTGTTAAAACATACTATAACTGTGGTTGTCCACAC (double strand) [Frog Prince transposon inverted repeat (pFrogPrince-neo)] |  | 17
